Reference: paper PMC11514473, “The transition state for coupled folding and binding of a disordered DNA binding domain resembles the unbound state” (Nucleic Acids Research, 2024)

Assays:
Experiment in all cases: stopped-flow fluorescence (koff/kon); 10 mM Mg2+; 10 mM MES pH 6.5, 150 mM NaCl, 10 mM MgCl2, 0.05% Tween-20, 25 C; NMR: 10 mM Tris-d11, 150 mM NaCl, 10 mM MgCl2, 1 mM NaN3, 5% D2O (NOE at 25 C)
Details in all cases: protein: recombinant; tags: extra N-terminal Gly; chain copies: 2; label: 5' Alexa Fluor 488; hairpin (self-annealing, 11 bp stem, CCCC loop)
285bZIP E306G = molecular target: T1, 285bZIP E306G (human, UniProt P16220-1 285-339, C300S;C310S;C337S;E306G)
T1 sequence: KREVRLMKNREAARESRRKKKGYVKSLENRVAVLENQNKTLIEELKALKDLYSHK

285bZIP E299A = molecular target: T2, 285bZIP E299A (human, UniProt P16220-1 285-339, C300S;C310S;C337S;E299A)
T2 sequence: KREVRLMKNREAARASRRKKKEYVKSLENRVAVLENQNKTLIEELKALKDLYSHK

285bZIP V288G = molecular target: T3, 285bZIP V288G (human, UniProt P16220-1 285-339, C300S;C310S;C337S;V288G)
T3 sequence: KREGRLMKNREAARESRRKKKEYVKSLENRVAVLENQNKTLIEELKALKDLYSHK

285bZIP E287A = molecular target: T4, 285bZIP E287A (human, UniProt P16220-1 285-339, C300S;C310S;C337S;E287A)
T4 sequence: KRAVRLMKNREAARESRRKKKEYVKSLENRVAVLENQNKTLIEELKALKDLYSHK

285bZIP K309A = molecular target: T5, 285bZIP K309A (human, UniProt P16220-1 285-339, C300S;C310S;C337S;K309A)
T5 sequence: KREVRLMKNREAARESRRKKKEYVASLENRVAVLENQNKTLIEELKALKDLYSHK

285bZIP E299G/E306G = molecular target: T6, 285bZIP E299G/E306G (human, UniProt P16220-1 285-339, C300S;C310S;C337S;E299G;E306G)
T6 sequence: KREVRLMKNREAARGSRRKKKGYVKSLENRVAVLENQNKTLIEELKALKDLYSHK

285bZIP E306A = molecular target: T7, 285bZIP E306A (human, UniProt P16220-1 285-339, C300S;C310S;C337S;E306A)
T7 sequence: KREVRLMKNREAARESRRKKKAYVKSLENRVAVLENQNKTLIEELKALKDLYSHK

285bZIP M291A = molecular target: T8, 285bZIP M291A (human, UniProt P16220-1 285-339, C300S;C310S;C337S;M291A)
T8 sequence: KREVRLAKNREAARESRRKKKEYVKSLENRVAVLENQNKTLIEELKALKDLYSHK

285bZIP M291G = molecular target: T9, 285bZIP M291G (human, UniProt P16220-1 285-339, C300S;C310S;C337S;M291G)
T9 sequence: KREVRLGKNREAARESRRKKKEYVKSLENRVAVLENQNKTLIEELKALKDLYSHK

285bZIP E299A/E306A = molecular target: T10, 285bZIP E299A/E306A (human, UniProt P16220-1 285-339, C300S;C310S;C337S;E299A;E306A)
T10 sequence: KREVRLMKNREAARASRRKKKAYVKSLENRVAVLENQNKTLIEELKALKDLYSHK

CCTGACGTCAGCCCCCTGACGTCAGG (structured_DNA) [AlexaFluor488-CREh]
Kd (285bZIP E306G): 3.9 ± 0.2 nM
Kd (285bZIP E299A): 0.0711 ± 0.0011 nM
Kd (285bZIP V288G): 2.77 ± 0.16 nM
Kd (285bZIP E287A): 1.89 ± 0.11 nM
Kd (285bZIP K309A): 2.12 ± 0.08 nM
Kd (285bZIP E299G/E306G): 54 ± 4 nM
Kd (285bZIP E306A): 0.139 ± 0.012 nM
Kd (285bZIP M291A): 0.31 ± 0.03 nM
Kd (285bZIP M291G): 5.2 ± 0.7 nM
Kd (285bZIP E299A/E306A): 0.0415 ± 0.0008 nM
